Reference: JP2008232916A

Legend:
[1] = target: T1, 配列番号16のアルファヘリカルペプチド (peptide containing the second helix peptide of the heterodimer), displayed on 15 nm gold particles; assay: gold nanoparticle aggregation: 500 nM free SEQ 15 added to SEQ 16 particles, absorption spectrum
T1 sequence (peptide): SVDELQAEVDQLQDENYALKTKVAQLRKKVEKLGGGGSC

[2] = target: T2, 配列番号2のアルファヘリカルペプチド (second helix peptide), displayed on 15 nm gold particles; assay: gold nanoparticle aggregation: 500 nM free SEQ 1 added to mixed SEQ 2 and SEQ 3 particles; the read-out belongs to the three-peptide complex
T2 sequence (peptide): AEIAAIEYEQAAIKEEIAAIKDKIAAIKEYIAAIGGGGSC

[3] = target: 配列番号3のアルファヘリカルペプチド (third helix peptide), displayed on 15 nm gold particles; assay: as above
[4] = target: T2, 配列番号2のアルファヘリカルペプチド (second helix peptide), displayed on 15 nm gold particles; assay: gold nanoparticle aggregation: 100 µl E. coli lysate supernatant added to 1 ml mixed SEQ 2 and SEQ 3 particles; the read-out belongs to the three-peptide complex
[5] = target: 配列番号3のアルファヘリカルペプチド (third helix peptide), displayed on 15 nm gold particles; assay: as above

B1: 配列番号15で示されるペプチド (first helix peptide of a heterodimer, SEQ ID NO 13, fused in tandem to both ends of the linker SEQ ID NO 14) (peptide)
peptide: TVAQLEEKVKTLRAQNYELKSRVQRLREQVAQLAGGGGSGGGGSGGGGSTVAQLEEKVKTLRAQNYELKSRVQRLREQVAQLA
- absorption maximum of the gold colloid after addition (about 525 nm before) [1]: 550 nm

Binder: AEIAAIKYKQAAIKNEIAAIKQEIAAIEQMIAAI [配列番号1で示されるアルファヘリカルペプチド (first helix peptide of the heterotrimeric alpha-helical coiled coil)]
- absorption maximum of the gold colloid after addition (525 nm before) [2]: 555 nm
- absorption maximum of the gold colloid after addition (525 nm before) [3]: 555 nm

B2: アルカリフォスファターゼ(配列番号5)と配列番号1のアルファヘリックスとの融合ペプチド(配列番号8) (enzyme)
chain: RTPEMPVLENRAAQGDITAPGGARRLTGDQTAALRDSLSDKPAKNIILLIGDGMGDSEITAARNYAEGAGGFFKGIDALPLTGQYTHYALNKKTGKPDYVTDSAASATAWSTGVKTYNGALGVDIHEKDHPTILEMAKASGLATGNVSTAELQDATPAALVAHVTSRKCYGPSATSEKCPGNALEKGGKGSITEQLLNARADVTLGGGAKTFAETATAGEWQGKTLREQAQARGYQLVNDAASLNAVTEANQQKPLLGLFADGNMPVRWLGPKATYHGNIDKPAVTCTPNPQRNDSVPTLAQMTDKAIELLSKNEKGFFLQVEGASIDKQDHAANPCGQIGETVDLDEAVQRALEFAKKDGNTLVIVTADHAHASQIVAPDTKAPGLTQALNTKDGAVMVMSYGNSEEDSQEHTGSQLRIAAYGPHAANVVGLTDQTDLFYTMKAALGLKGGGSGGGSGGGSLVPRGSAEIAAIKYKQAAIKNEIAAIKQEIAAIEQMIAAI
- absorption maximum of the gold colloid after addition [4]: 555 nm
- absorption maximum of the gold colloid after addition [5]: 555 nm
